Reference: US11230711B2, “Inhibition of LET7I as a means to enhance the protective effect of progesterone against stroke” (UNIVERSITY OF NORTH TEXAS HEALTH SCIENCE CENTER, priority 2017, dated 2022)

Test system: primary cortical neurons
Test: Synaptic marker expression (Synaptophysin, Gap-43) in primary cortical neurons, immunostaining and qRT-PCR
Type: cell-based, mouse
Conditions: P4-ACM from 10 nM P4-treated astrocytes, 18 hrs, BDNF 50 ng/ml, FIGS. 1A-1B
From the text: FIG. 1A represents immune-staining of Gap43 (green) and Synaptophysin (red). FIG. 1B represents qRT-PCR analysis of Gap43 (left) and Synaptophysin (right) mRNA levels. Data are presented as a percentage of control (non-treated group) (*: p≤0.05, **:p≤0.01).
The use of animals for the purpose of generating primary cultures was approved by the Institutional Animal Care and Use Committee at the University of North Texas Health Science Center. All mice will be handled according to the Guide for the Care and Use of Laboratory Animals. Primary cultures of cortex and hippocampal neurons will be prepared from neonatal murine pups (C57BL/6 mice, Jackson Laboratory) as described by Sarkar et al. with modifications. Briefly, cortical tissues isolated from newborn mice (postnatal days 2-4, mixed gender) will be then dissociated with trypsin and DNase I for 10 min at 37° C., and wash twice with Neurobasal-A medium containing B-27 and further dissociated by gentle titration using a graded series of fine polished Pasteur pipettes. After centrifugation at 200×g for 3 min at 4° C., dissociated cells will be resuspended in Neurobasal-AB-27 medium, passed through a cell strainer with 70 μm mesh, and plated at 1.0×10^5 cells/cm2 on culture dishes precoated with poly-D-lysine. The culture dishes were kept at 37° C. in humidified 95% air and 5% CO2. For primary neuron-enriched culture, the initial culture medium was replaced after 5 h; subsequently, half of the medium was changed every 3 days. At day in vitro (DIV) 3, 1-β-arabinofuranosylcytosine (AraC) was added to a final concentration of 5 μM to prevent glial proliferation. Treatments of the primary neuronal cultures started at DIV 14. For glial-enriched cultures, confluent mixed glial cultures were placed on the shaker for 48 hrs to dislodge microglia, resulting in cultures enriched with astrocyte population.
Although the underlying mechanism remains unclear, one potential mediator for P4-induced synaptogenesis is BDNF [33].

[1] = listed as purified recombinant BDNF

B1: BDNF: purified recombinant brain-derived neurotrophic factor, 50 ng/ml, positive control (protein, UniProt P23560 19-247, looked up)
Neurotrophic factor BDNF …: APMKEANIRGQGGLAYPGVRTHGTLESVNGPKAGSRGLTSLADTFEHVIEELLDEDQKVRPNEENNKDADLYTSRVMLSSQVPLEPPLLFLLEEYKNYLDAANMSMRVRRHSDPARRGELSVCDSISEWVTAADKKTAVDMSGGTVTVLEKVPVSKGQLKQYFYETKCNPMGYTKEGCRGIDKRHWNSQCRTTQSYVRALTMDSKKRIGWRFIRIDTSCVCTLTIKRGR
  expression of Gap-43: increased expression
  expression of Synaptophysin: increased expression
[1]
  expression of Gap-43: increased the expression
  expression of Synaptophysin: increased the expression
